Test results taken from the supplement of paper PMC10567573.
± gives the standard deviation.

Assay: protein stability index of a GFP-peptide fusion (GPS, HEK-293T) (PSI 1-6); higher = more stable
Details: c terminus: a fixed tail appended
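Also: 24-mer peptide tiles fused after GFP, lentivirally expressed, FACS-sorted into six equal bins by GFP/DsRed ratio, decoded by Illumina sequencing, PSI is the read-weighted mean bin number.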

Row | Sequence | protein stability index (treatment: DMSO) | protein stability index (treatment: MLN4924 1 uM, 8 h)
1 | SPRLTFQCLEDLVNHYSEVADGLC [SLA] | 2.79 ± 0.45 | 3.19 ± 0.54
2 | LVWLVRELVKSGVLGADGVCMTFM [INTS3] | 2.17 ± 0.54 | 2.22 ± 0.84
3 | ERMPPSGAARSFQEVTEPAVVAVD [PXN] | 4.95 ± 0.17 | 5.29 ± 0.31
4 | EAASSSSTLVEVTLGEVPAAESPD [MAGEA3] | 5.41 ± 0.15 | 5.49 ± 0.12
5 | GIEHAQCVPPSEFSEPSFITESYQ [ETS1] | 4.44 ± 0.12 | 4.15 ± 0.3
6 | GAGRRRRAGGPPRPMSEPGAGAGS [SMAD6] | 5.22 ± 0.41 | 5.21 ± 0.14
7 | DFYRCGYCKNESGSRSNGMWAHSM [ATE1] | 2.56 ± 0.59 | 2.2 ± 0.13
8 | HGDARATGREMHGKNWSKLCKDCQ [TPPP] | 4.18 ± 0.13 | 4.53 ± 0.23
9 | AGISRSPTICMAYLMKTKQFRLKE [DUSP5] | 2.21 ± 0.3 | 2.13 ± 0.24
10 | AQALGYYYVLEPRVVDGTPCSPDS [ADAMTS4] | 2.74 ± 0.52 | 2.7 ± 0.38
11 | LCDVTLMPGDTDDAFPVHRVMMAS [KLHL13] | 3.03 ± 0.34 | 3.2 ± 0.19
12 | RTVDGSPMMKAAMYSVEITVEKDK [PALM] | 4.09 ± 0.18 | 4.1 ± 0.23
13 | ATSGPPGIQPGQEPPVTMIFMGYQ [PALM] | 2.47 ± 0.24 | 2.38 ± 0.14
14 | LSLTGVSLAGALGVKFVGLFIILQ [POMT2] | 3.05 ± 1.1 | 2.39 ± 1.1
15 | HALRKKQLKRQKRDYIHSLKLLNV [FAM9B] | 2.6 ± 0.42 | 2.84 ± 0.27
16 | LSKSRTDYQPTQAGRLMRPSVKYL [RNF180] | 3.19 ± 0.25 | 3.11 ± 0.49
17 | NAESSKTWLKGKFTELRLLLDEEE [TRIM14] | 4.14 ± 0.34 | 4.41 ± 0.47
18 | LKLYEQWKNFDERKEMATILSKMP [CCNC] | 2.61 ± 0.59 | 2.62 ± 0.41
19 | SQTPILQALQHVQASCDEAHKMKF [INTS3] | 3.88 ± 0.14 | 3.93 ± 0.21
20 | IVKKPKSMQCKVILLDGSEYTCDV [EPB41L3] | 1.93 ± 0.24 | 2.23 ± 0.69
21 | GIKTVIVNMVDVAKALNRPPTYPT [EIF5] | 2.32 ± 0.48 | 2.4 ± 0.59
22 | LRQLGCKDGKNWNSNQATDIMETS [SPOPL] | 4.25 ± 0.24 | 4.28 ± 0.1
23 | KVALEPQLWELGKVLRKAGLSAGY [LPCAT4] | 2.27 ± 0.26 | 2.21 ± 0.36

Row | Sequence | protein stability index (treatment: DMSO) | protein stability index (treatment: MLN4924 1 uM, 8 h)
24 | SFMMGQGGEAAHHTRSPYSTFYPP [NEUROD6] | 2.66 ± 0.39 | 2.84 ± 0.25
25 | LEEVERAILEMKWKVRAEKEACQR [ZBED2] | 3.87 ± 0.18 | 3.76 ± 0.21
26 | QAKQEMNESRRQIQSLTCEVDGLR [PRPH] | 4.55 ± 0.37 | 4.78 ± 0.18
27 | TFKSLSHIDPDVLYPSLNVTSFDS [ALG2] | 2.77 ± 0.14 | 2.92 ± 0.19
28 | PSPDMECADVPLLTPSSKEMMSQA [ETS1] | 5.15 ± 0.25 | 5.2 ± 0.11
29 | DPSIFTAQPNTMLGRMFGSGREHN [BTBD10] | 3.95 ± 0.27 | 3.79 ± 0.28
30 | DPANCDYVIVSGAQRKEERWDMAD [YJU2B] | 4.74 ± 0.3 | 4.63 ± 0.16
31 | SPTSGSPRGSHSSALERLETKLHL [LURAP1L] | 3.64 ± 0.4 | 3.94 ± 0.36
32 | ICCDKCSVWQHIDCMGIDRQHIPD [KMT2E] | 2.7 ± 0.28 | 2.87 ± 0.43
33 | GSLDLVPGGLTLEEHSLEQVQSMV [SPDEF] | 4.35 ± 0.38 | 4.66 ± 0.21
34 | YNSSRFGEGVERELFVREPTGRLP [MYORG] | 3.62 ± 0.22 | 3.73 ± 0.43
35 | KVTISNRLVSSPCCIVTSTYGWTA [HSP90AB1] | 2.84 ± 0.9 | 2.51 ± 0.37
36 | HKPKNSEELYKEIDGVATTRYSVA [PTPRD] | 4.43 ± 0.17 | 4.66 ± 0.21
37 | FEDPRDAEDAVYGRDGYDYDGYRL [SRSF1] | 4.73 ± 0.18 | 4.8 ± 0.14
38 | PGARTRAGAARVARWRRLRLQQLR [FBXO33] | 4.12 ± 0.28 | 4.51 ± 0.26
39 | ENYLNRCMDQERLRRESTSQKEMD [FCHO1] | 4.24 ± 0.28 | 4.56 ± 0.3
40 | ILLKVKTEIEEELKSLDKEISEAF [BCL2L13] | 2.75 ± 0.36 | 3.19 ± 0.33
41 | CLELVSCFVLFSLTHTHTHTPNHR [ANKRD44] | 2.7 ± 0.081 | 3.55 ± 0.097
42 | GHPVGLALEAAVHVQKLSQECLKQ [TRIM14] | 3.07 ± 0.2 | 3.14 ± 0.28
43 | NGVNVLDEPYEKVVDRIQSSGKNV [PDZK1] | 5.03 ± 0.3 | 
44 | KAGIEQEGYWLPGDEISIKKKNTN [ZMYND11] | 4.5 ± 0.3 | 4.62 ± 0.35
45 | MLQEQLDAINEEIRMIQEEKESTE [PPFIA4] | 4.75 ± 0.41 | 4.84 ± 0.11
